Measurements published in paper PMC11502334, “Fungal glyceraldehyde 3-phosphate dehydrogenase GpdC maintains glycolytic mechanism against reactive nitrogen stress-induced damage” (Frontiers in Microbiology, 2024).

Legend:
Experiment in all cases: purified protein
Format in all cases: biochemical, Aspergillus nidulans
purified protein [1] = substrate: NC(=O)c1ccc[n+]([C@@H]2O[C@H](COP(=O)(O)OP(=O)(O)OC[C@H]3O[C@@H](n4cnc5c(N)ncnc54)[C@H](O)[C@@H]3O)[C@@H](O)[C@H]2O)c1; details: GAP as co-substrate, 30 mM sodium pyrophosphate, 10 mM potassium phosphate, pH 8.4, 25°C, varied: cofactor
purified protein [2] = substrate: NC(=O)c1ccc[n+]([C@@H]2O[C@H](COP(=O)(O)OP(=O)(O)OC[C@H]3O[C@@H](n4cnc5c(N)ncnc54)[C@H](OP(=O)(O)O)[C@@H]3O)[C@@H](O)[C@H]2O)c1; details: GAP as co-substrate, 30 mM sodium pyrophosphate, 10 mM potassium phosphate, pH 8.4, 25°C, varied: cofactor
purified protein [3] = substrate: O=C[C@H](O)COP(=O)(O)O; details: 30 mM sodium pyrophosphate, 10 mM potassium phosphate, pH 8.4, 25°C
[4] = co-substrate (NAD+ or NADP+) not given

Protein	Km (purified protein [1])	kcat (purified protein [1])	kcat/Km (purified protein [1])	Km (purified protein [2])	kcat (purified protein [2])	kcat/Km (purified protein [2])	Km (purified protein [3]; [4])	kcat (purified protein [3]; [4])	kcat/Km (purified protein [3]; [4])	Km (purified protein [3]; NAD+ as co-substrate)	kcat (purified protein [3]; NAD+ as co-substrate)	kcat/Km (purified protein [3]; NAD+ as co-substrate)
rGpdC (GpdC) (Aspergillus nidulans FGSC A4) (protein, recombinant from synthetic E. coli codon-optimized gene, vector pET-21a (Nde I/Hind III), expressed in E. coli BL21 (DE3), HisTrap purified) MAPSINEIPISDSPSACRVGINGFGRIGRNVLRVALARNDIQIVAINHTCTSVQDLIYLIRYDSSMGKLSPDIPIHAISETQISVNGRPIALTSERDLKKLNWAALGAEYVVECTGKFTKRELAQDHITYGGAKRVVISAPSSDSPTYVYGVNADEYRANEETRVISCASCTTNCVTPVLKVLQREFGIAQGFLTTVHAATKSQTVLDGYSKKNRRLGRSVFDNIIPTTTGAAKAIASVLPELTGKVTGASIRVPTPNVSLIDLTVSTETPTSLAEILAAFRRAAKNELAGVLSVSDEVLVSSDYLGDSHSAIVDAAACSELNPTFFKIMAWYDNEWGYSSRLLDLTRHIAHNE	420 ± 20 µM	4 ± 0.333 s⁻¹	9330 ± 333 M⁻¹ s⁻¹	47 ± 2 µM	8.83 ± 0.5 s⁻¹	183000 ± 16700 M⁻¹ s⁻¹	290 ± 20 µM	2.67 ± 0.333 s⁻¹	9170 ± 333 M⁻¹ s⁻¹	–	–	–
rGpdA (GpdA) (Aspergillus nidulans FGSC A4) (protein, recombinant from cDNA, vector pET-21a, expressed in E. coli BL21 (DE3), HisTrap purified) MAPKVGINGFGRIGRIVFRNAIEAGTVDVVAVNDPFIETHYAAYMLKYDSQHGQFKGTIETYDEGLIVNGKKIRFHTERDPANIPWGQDGAEYIVESTGVFTTQEKASAHLKGGAKKVVISAPSADAPMFVMGVNNETYKKDIQVLSNASCTTNCLAPLAKVINDNFGIIEGLMTTVHSYTATQKVVDGPSAKDWRGGRTAATNIIPSSTGAAKAVGKVIPSLNGKLTGMAMRVPTSNVSVVDLTVRTEKAVTYDQIKDAVKKASENELKGILGYTEDDIVSTDLNGDTRSSIFDAKAGIALNSNFIKLVSWYDNEWGYSRRVVDLITYISKVDAQ	180 ± 30 µM	85 ± 3.33 s⁻¹	467000 ± 117000 M⁻¹ s⁻¹	–	–	–	–	–	–	410 ± 90 µM	55 ± 3.33 s⁻¹	132000 ± 40000 M⁻¹ s⁻¹
